Measurements published in PMC7026398, “Structural and functional insight into the effect of AFF4 dimerization on activation of HIV-1 proviral transcription” (Cell Discovery, 2020).
Where a chain is given by its changes, count along the chain named. Names and notes keep the numbering of the source.

B1: Flag-AFF4 F1014A, full length (natural protein)
chain: MNREDRNVLRMKERERRNQEIQQGEDAFPPSSPLFAEPYKVTSKEDKLSSRIQSMLGNYDEMKDFIGDRSIPKLVAIPKPTVPPSADEKSNPNFFEQRHGGSHQSSKWTPVGPAPSTSQSQKRSSGLQSGHSSQRTSAGSSSGTNSSGQRHDRESYNNSGSSSRKKGQHGSEHSKSRSSSPGKPQAVSSLNSSHSRSHGNDHHSKEHQRSKSPRDPDANWDSPSRVPFSSGQHSTQSFPPSLMSKSNSMLQKPTAYVRPMDGQESMEPKLSSEHYSSQSHGNSMTELKPSSKAHLTKLKIPSQPLDASASGDVSCVDEILKEMTHSWPPPLTAIHTPCKTEPSKFPFPTKESQQSNFGTGEQKRYNPSKTSNGHQSKSMLKDDLKLSSSEDSDGEQDCDKTMPRSTPGSNSEPSHHNSEGADNSRDDSSSHSGSESSSGSDSESESSSSDSEANEPSQSASPEPEPPPTNKWQLDNWLNKVNPHKVSPASSVDSNIPSSQGYKKEGREQGTGNSYTDTSGPKETSSATPGRDSKTIQKGSESGRGRQKSPAQSDSTTQRRTVGKKQPKKAEKAAAEEPRGGLKIESETPVDLASSMPSSRHKAATKGSRKPNIKKESKSSPRPTAEKKKYKSTSKSSQKSREIIETDTSSSDSDESESLPPSSQTPKYPESNRTPVKPSSVEEEDSFFRQRMFSPMEEKELLSPLSEPDDRYPLIVKIDLNLLTRIPGKPYKETEPPKGEKKNVPEKHTREAQKQASEKVSNKGKRKHKNEDDNRASESKKPKTEDKNSAGHKPSSNRESSKQSAAKEKDLLPSPAGPVPSKDPKTEHGSRKRTISQSSSLKSSSNSNKETSGSSKNSSSTSKQKKTEGKTSSSSKEVKEKAPSSSSNCPPSAPTLDSSKPRRTKLVFDDRNYSADHYLQEAKKLKHNADALSDRFEKAVYYLDAVVSFIECGNALEKNAQESKSPFPMYSETVDLIKYTMKLKNYLAPDATAADKRLTVLCLRCESLLYLRLAKLKKENALKYSKTLTEHLKNSYNNSQAPSPGLGSKAVGMPSPVSPKLSPGNSGNYSSGASSASASGSSVTIPQKIHQMAASYVQVTSNFLYATEIWDQAEQLSKEQKEFFAELDKVMGPLIFNASIMTDLVRYTRQGLHWLRQDAKLIS
B2: Flag-AFF4 Y1096A, full length (natural protein)
chain: B1 chain with A1014F, Y1096A
B3: Flag-AFF1 F1063A+Y1145A+V1146A+V1152A, full length (natural protein)
chain: MAAQSSLYNDDRNLLRIREKERRNQEAHQEKEAFPEKIPLFGEPYKTAKGDELSSRIQNMLGNYEEVKEFLSTKSHTHRLDASENRLGKPKYPLIPDKGSSIPSSSFHTSVHHQSIHTPASGPLSVGNISHNPKMAQPRTEPMPSLHAKSCGPPDSQHLTQDRLGQEGFGSSHHKKGDRRADGDHCASVTDSAPERELSPLISLPSPVPPLSPIHSNQQTLPRTQGSSKVHGSSNNSKGYCPAKSPKDLAVKVHDKETPQDSLVAPAQPPSQTFPPPSLPSKSVAMQQKPTAYVRPMDGQDQAPSESPELKPLPEDYRQQTFEKTDLKVPAKAKLTKLKMPSQSVEQTYSNEVHCVEEILKEMTHSWPPPLTAIHTPSTAEPSKFPFPTKDSQHVSSVTQNQKQYDTSSKTHSNSQQGTSSMLEDDLQLSDSEDSDSEQTPEKPPSSSAPPSAPQSLPEPVASAHSSSAESESTSDSDSSSDSESESSSSDSEENEPLETPAPEPEPPTTNKWQLDNWLTKVSQPAAPPEGPRSTEPPRRHPESKGSSDSATSQEHSESKDPPPKSSSKAPRAPPEAPHPGKRSCQKSPAQQEPPQRQTVGTKQPKKPVKASARAGSRTSLQGEREPGLLPYGSRDQTSKDKPKVKTKGRPRAAASNEPKPAVPPSSEKKKHKSSLPAPSKALSGPEPAKDNVEDRTPEHFALVPLTESQGPPHSGSGSRTSGCRQAVVVQEDSRKDRLPLPLRDTKLLSPLRDTPPPQSLMVKITLDLLSRIPQPPGKGSRQRKAEDKQPPAGKKHSSEKRSSDSSSKLAKKRKGEAERDCDNKKIRLEKEIKSQSSSSSSSHKESSKTKPSRPSSQSSKKEMLPPPPVSSSSQKPAKPALKRSRREADTCGQDPPKSASSTKSNHKDSSIPKQRRVEGKGSRSSSEHKGSSGDTANPFPVPSLPNGNSKPGKPQVKFDKQQADLHMREAKKMKQKAELMTDRVGKAFKYLEAVLSFIECGIATESESQSSKSAYSVYSETVDLIKFIMSLKSFSDATAPTQEKIFAVLCMRCQSILNMAMARCKKDIAIKYSRTLNKHFESSSKVAQAPSPCIASTGTPSPLSPMPSPASSVGSQSSAGSVGSSGVAATISTPVTIQNMTSSAATITSHALTAFDLWEQAEALTRKNKEFFARLSTNVCTLALNSSLVDLVHYTRQGFQQLQELTKTP
B4: human AFF4-THD (902-1163), wild type (domain or fragment, UniProt Q9UHB7 902-1163, looked up)
chain: RRTKLVFDDRNYSADHYLQEAKKLKHNADALSDRFEKAVYYLDAVVSFIECGNALEKNAQESKSPFPMYSETVDLIKYTMKLKNYLAPDATAADKRLTVLCLRCESLLYLRLFKLKKENALKYSKTLTEHLKNSYNNSQAPSPGLGSKAVGMPSPVSPKLSPGNSGNYSSGASSASASGSSVTIPQKIHQMAASYVQVTSNFLYATEIWDQAEQLSKEQKEFFAELDKVMGPLIFNASIMTDLVRYTRQGLHWLRQDAKLIS
notes: AFF4 THD (TPRL with Handle Region Dimerization Domain, C-terminal homology domain), human, residues 902-1163; A selenomethionyl form was used for phasing only; The general purification text tells of TEV digestion and removal of the His6-tag, but only the N-terminal tag of AFF1-THD is called removable; also called AFF-THD; THD of AFF4; source: E. coli BL21 (DE3), purified (Ni-NTA, Hi-Trap SP HP, …)
B5: AFF1-THD (953-1210), wild type (domain or fragment, UniProt P51825 953-1210, looked up)
chain: GKPQVKFDKQQADLHMREAKKMKQKAELMTDRVGKAFKYLEAVLSFIECGIATESESQSSKSAYSVYSETVDLIKFIMSLKSFSDATAPTQEKIFAVLCMRCQSILNMAMFRCKKDIAIKYSRTLNKHFESSSKVAQAPSPCIASTGTPSPLSPMPSPASSVGSQSSAGSVGSSGVAATISTPVTIQNMTSSYVTITSHVLTAFDLWEQAEALTRKNKEFFARLSTNVCTLALNSSLVDLVHYTRQGFQQLQELTKTP
notes: AFF1 THD, residues 953-1210; the limits 953-1210 fit human AFF1; also called wild-type AFF1-THD; source: E. coli BL21 (DE3), purified (Ni-NTA, Hi-Trap SP HP, TEV digestion, Superdex 200); not shown: His6, N-terminal, cleaved
B6: AFF1-THD F1063A (domain or fragment, UniProt P51825 953-1210, looked up)
chain: B5 chain with F111A
notes: AFF1 THD, residues 953-1210, with F1063A; also called AFF1^F1063A; source: E. coli BL21 (DE3), purified (Ni-NTA, Hi-Trap SP HP, TEV digestion, Superdex 200); not shown: His6, N-terminal, cleaved
B7: AFF1-THD Y1145A (domain or fragment, UniProt P51825 953-1210, looked up)
chain: B5 chain with Y193A
notes: AFF1 THD, residues 953-1210, with Y1145A; also called AFF1^Y1145A; source: E. coli BL21 (DE3), purified (Ni-NTA, Hi-Trap SP HP, TEV digestion, Superdex 200); not shown: His6, N-terminal, cleaved
B8: AFF1-THD F1063A+Y1145A (domain or fragment, UniProt P51825 953-1210, looked up)
chain: B5 chain with F111A, Y193A
notes: AFF1 THD, residues 953-1210, with F1063A and Y1145A; source: E. coli BL21 (DE3), purified (Ni-NTA, Hi-Trap SP HP, TEV digestion, Superdex 200); not shown: His6, N-terminal, cleaved
B9: AFF4-THD Y1024A (domain or fragment, human, UniProt Q9UHB7 902-1163, looked up)
chain: B4 chain with Y123A
notes: AFF4 THD, human, residues 902-1163, with Y1024A; PDB 6K7P is the wild-type parent of the same limits; source: E. coli BL21 (DE3), purified (Ni-NTA, Hi-Trap SP HP, Superdex 200)
B10: AFF4-THD S1025A (domain or fragment, human, UniProt Q9UHB7 902-1163, looked up)
chain: B4 chain with S124A
notes: AFF4 THD, human, residues 902-1163, with S1025A; PDB 6K7P is the wild-type parent of the same limits; source: E. coli BL21 (DE3), purified (Ni-NTA, Hi-Trap SP HP, Superdex 200)
B11: AFF4-THD V1097A (domain or fragment, human, UniProt Q9UHB7 902-1163, looked up)
chain: B4 chain with V196A
notes: AFF4 THD, human, residues 902-1163, with V1097A; PDB 6K7P is the wild-type parent of the same limits; also called AFF4-THD^Val1097A; Val1097A; source: E. coli BL21 (DE3), purified (Ni-NTA, Hi-Trap SP HP, Superdex 200)
B12: AFF4-THD T1100A+Y1096F (domain or fragment, human, UniProt Q9UHB7 902-1163, looked up)
chain: B4 chain with Y195F, T199A
notes: AFF4 THD, human, residues 902-1163, with T1100A and Y1096F; PDB 6K7P is the wild-type parent of the same limits; source: E. coli BL21 (DE3), purified (Ni-NTA, Hi-Trap SP HP, Superdex 200)

Key:
[1] = biological target: Flag-AFF4 F1014A, full length (human) (UniProt Q9UHB7)
[2] = biological target: Flag-AFF4 Y1096A, full length (human) (UniProt Q9UHB7)
[3] = biological target: Flag-AFF1 F1063A+Y1145A+V1146A+V1152A, full length (UniProt P51825)
[4] = biological target: the molecule itself; test: SEC; analytical gel filtration, Superdex 75 10/300 increase, 25 mM Tris pH 8.0, 150 mM NaCl, 2 mM DTT; 6 mg/ml, 100 μl injected; self-association, dimer or monomer by elution volume

Binder	binding result [4]	also measured
B1		HIV-LTR-luciferase reporter in NH1 cells, overexpressed Flag-AFF4 mutant against wild type (% less than wild type) [1]: 10
B2		HIV-LTR-luciferase reporter in NH1 cells, overexpressed Flag-AFF4 mutant against wild type (fold less than wild type) [2]: 1
B3		HIV-LTR-luciferase reporter in NH1 cells, overexpressed Flag-AFF1 mutant against wild-type AFF1 (fold less than wild-type AFF1) [3]: 1
B4		stoichiometry N [4]: 2
B5		stoichiometry N [4]: 2
B6	binds	
B7	binds	
B8	binds	
B9	binds	
B10	binds	
B11	binds	
B12	binds	
